Experiments:
Assay in all cases: SPR
Ab62-S74P (human) = target: Ab62-S74P (human)
[1] = target: Ab77 with a T28I mutation (human)
Ab62-D100dG (human) = target: Ab62-D100dG (human)
[2] = target: Other beneficial substitutions in Ab77 and Ab31

B1: Recombinant dimeric HARS (aa1-506) (enzyme)
chain: MAERAALEELVKLQGERVRGLKQQKASAELIEEEVAKLLKLKAQLGPDESKQKFVLKTPKGTRDYSPRQMAVREKVFDVIIRCFKRHGAEVIDTPVFELKETLMGKYGEDSKLIYDLKDQGGELLSLRYDLTVPFARYLAMNKLTNIKRYHIAKVYRRDNPAMTRGRYREFYQCDFDIAGNFDPMIPDAECLKIMCEILSSLQIGDFLVKVNDRRILDGMFAICGVSDSKFRTICSSVDKLDKVSWEEVKNEMVGEKGLAPEVADRIGDYVQQHGGVSLVEQLLQDPKLSQNKQALEGLGDLKLLFEYLTLFGIDDKISFDLSLARGLDYYTGVIYEAVLLQTPAQAGEEPLGVGSVAAGGRYDGLVGMFDPKGRKVPCVGLSIGVERIFSIVEQRLEALEEKIRTTETQVLVASAQKKLLEERLKLVSELWDAGIKAELLYKKNPKLLNQLQYCEEAGIPLVAIIGEQELKDGVIKLRSVTSREEVDVRREDLVEEIKRRTGQPL
Ab62-S74P (human)
  fold improvement of affinity over the parent Ab62: 3 fold
[1]
  fold improvement of affinity over the parent Ab77: 3 fold
Ab62-D100dG (human)
  fold improvement of affinity over the parent Ab62: 3 fold
[2]
  fold improvement of affinity over the parent antibody: < 2 fold

— publication PMC7646482
